The source of these data is patent US5869336A, “Recombinant enzymatically active calpain expressed in a baculovirus system” (Cephalon, Inc., priority 1997, dated 1999).

For the test, the system named is native human calpain I. In words: Calcium-dependent protease activity (Succ-Leu-Tyr-AMC), native calpain I. The test is classed as biochemical. The following applies: 1 mM Succ-Leu-Tyr-AMC, 5 mM CaCl2; FIG. 5a. As for the experimental part:
Sf21 cells were again seeded in 24 well plates at 1.5×10^5 cells/cm^2 and infected with either wild-type virus, coinfected with both AcNPV-hCANP30-5 and AcNPV-hCANPI80-5 (MOI of 5 for each virus), or infected with AcNPV-hCANPI-2-5 (MOI=5.7). The intracellular proteins were harvested at 40 hours after infection with 100 μl/well of the following lysis buffer: 50 mM Tris-HCl, pH 7.5, 50 mM NaCl, 1 mM EDTA, 1 mM EGTA, 5 mM β-mercaptoethanol, 0.1% Triton-100, followed by a 10 minutes centrifugation at 14,000×g at 4° C. to pellet the nuclei and some membranes. The in vitro enzyme activity of 20 μl of each extract (12.5-20 μg of total protein) was measured using the synthetic peptide substrate succinyl-leucine-tyrosine-aminomethyl coumarin (Succ-Leu-Tyr-AMC) at a 1 mM concentration with and without the addition of 5 mM CaCl2 following the procedure of Sasaki et al., J. Biol. Chem., 259:12489-12494 (1984), incorporated herein by reference. The activity obtained was compared with the enzyme activity of 2 μg of partially-purified native human calpain I produced according to the method of Siman et al., supra.
The activity in the presence of calcium was also measured with the addition of 12.5 μM calpain inhibitor I following the procedure disclosed in Sasaki et al., supra. The results are depicted in FIGS. 5a-d. In FIGS. 5a-d, open circles represent activity without calcium present. […]

B1: native human calpain I: partially-purified native human calpain I (protein, UniProt P07384 2-714; P04632 1-268, looked up)
Calpain-1 catalytic subunit: SEEIITPVYCTGVSAQVQKQRARELGLGRHENAIKYLGQDYEQLRVRCLQSGTLFRDEAFPPVPQSLGYKDLGPNSSKTYGIKWKRPTELLSNPQFIVDGATRTDICQGALGDCWLLAAIASLTLNDTLLHRVVPHGQSFQNGYAGIFHFQLWQFGEWVDVVVDDLLPIKDGKLVFVHSAEGNEFWSALLEKAYAKVNGSYEALSGGSTSEGFEDFTGGVTEWYELRKAPSDLYQIILKALERGSLLGCSIDISSVLDMEAITFKKLVKGHAYSVTGAKQVNYRGQVVSLIRMRNPWGEVEWTGAWSDSSSEWNNVDPYERDQLRVKMEDGEFWMSFRDFMREFTRLEICNLTPDALKSRTIRKWNTTLYEGTWRRGSTAGGCRNYPATFWVNPQFKIRLDETDDPDDYGDRESGCSFVLALMQKHRRRERRFGRDMETIGFAVYEVPPELVGQPAVHLKRDFFLANASRARSEQFINLREVSTRFRLPPGEYVVVPSTFEPNKEGDFVLRFFSEKSAGTVELDDQIQANLPDEQVLSEEEIDENFKALFRQLAGEDMEISVKELRTILNRIISKHKDLRTKGFSLESCRSMVNLMDRDGNGKLGLVEFNILWNRIRNYLSIFRKFDLDKSGSMSAYEMRMAIESAGFKLNKKLYELIITRYSEPDLAVDFDNFVCCLVRLETMFRFFKTLDTDLDGVVTFDLFKWLQLTMFA
Calpain small subunit 1: MFLVNSFLKGGGGGGGGGGGLGGGLGNVLGGLISGAGGGGGGGGGGGGGGGGGGGGTAMRILGGVISAISEAAAQYNPEPPPPRTHYSNIEANESEEVRQFRRLFAQLAGDDMEVSATELMNILNKVVTRHPDLKTDGFGIDTCRSMVAVMDSDTTGKLGFEEFKYLWNNIKRWQAIYKQFDTDRSGTICSSELPGAFEAAGFHLNEHLYNMIIRRYSDESGNMDFDNFISCLVRLDAMFRAFKSLDKDGTGQIQVNIQEWLQLTMYS
Take B1: the “calcium-dependent substrate hydrolysis” value is “calcium-dependent increase in substrate hydrolysis”.
